Source: patent US20220323495A1

What was measured:
[1] = biological target: recombinant human EGFRvIII protein, native (human) (UniProt P00533); test: ELISA on coated native recombinant antigen; Exp 1
[2] = biological target: recombinant human wild-type EGFR protein, native (human) (UniProt P00533); test: ELISA on coated native recombinant antigen; Exp 1
[3] = biological target: recombinant human EGFRvIII protein, denatured (human) (UniProt P00533); test: ELISA on coated denatured recombinant antigen; Exp 1
[4] = biological target: recombinant human wild-type EGFR protein, denatured (human) (UniProt P00533); test: as above
[5] = biological target: recombinant human EGFRvIII protein, native (human) (UniProt P00533); test: ELISA on coated native recombinant antigen; Exp 2, mAb 1 µg/ml
[6] = biological target: recombinant human wild-type EGFR protein, native (human) (UniProt P00533); test: as above
[7] = biological target: recombinant human EGFRvIII protein, denatured (human) (UniProt P00533); test: ELISA on coated denatured recombinant antigen; Exp 2, mAb 1 µg/ml
[8] = biological target: recombinant human wild-type EGFR protein, denatured (human) (UniProt P00533); test: as above

Substance	ELISA absorbance (405 nm) [1]	ELISA absorbance (405 nm) [2]	ELISA absorbance (405 nm) [3]	ELISA absorbance (405 nm) [4]	ELISA absorbance (405 nm) [5]	ELISA absorbance (405 nm) [6]	ELISA absorbance (405 nm) [7]	ELISA absorbance (405 nm) [8]
225 monoclonal antibody (ATCC HB-8508)	1.08 A405	1.2 A405	0.001 A405	-0.01 A405	1.5 A405	1.32 A405	0.004 A405	
Neg ctrl mouse mAb (antibody)					-0.001 A405			0 A405
